In the supplement of paper PMC10065799, “High-throughput profiling of sequence recognition by tyrosine kinases and SH2 domains using bacterial peptide display” (eLife, 2023):

How the values were obtained:
Grb2 SH2 = Grb2 SH2 (UniProt P62993); assay: SH2 binding enrichment of the phosphorylated peptide, bacterial display (enrichment ratio); higher = better substrate or ligand; peptides without Tyr show the background
c-Src SH2 = assay: as above
SHP2-C SH2 = assay: as above
Hck = Hck (UniProt P08631); assay: phosphorylation enrichment, bacterial display (enrichment ratio); higher = better substrate or ligand; peptides without Tyr show the background
c-Src = assay: as above
Fyn = Fyn (UniProt P06241); assay: as above
Fyn, sequence (P06241 whole entry, looked up): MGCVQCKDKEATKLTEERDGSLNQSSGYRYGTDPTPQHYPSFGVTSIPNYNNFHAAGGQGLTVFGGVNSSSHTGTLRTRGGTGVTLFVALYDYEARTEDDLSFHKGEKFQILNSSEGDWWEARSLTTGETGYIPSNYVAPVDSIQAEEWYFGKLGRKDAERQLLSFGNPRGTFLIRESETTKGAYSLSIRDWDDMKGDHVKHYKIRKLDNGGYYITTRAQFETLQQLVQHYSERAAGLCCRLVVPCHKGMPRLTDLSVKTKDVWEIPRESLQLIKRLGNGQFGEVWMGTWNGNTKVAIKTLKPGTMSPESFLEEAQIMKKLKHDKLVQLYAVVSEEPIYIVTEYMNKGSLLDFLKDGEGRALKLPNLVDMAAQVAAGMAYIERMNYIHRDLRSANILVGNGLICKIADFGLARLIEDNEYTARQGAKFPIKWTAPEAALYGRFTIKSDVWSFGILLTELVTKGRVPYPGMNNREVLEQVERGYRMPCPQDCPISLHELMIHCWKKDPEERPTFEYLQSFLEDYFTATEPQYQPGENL

c-Abl (mouse) = assay: as above
Jak2 = Jak2 (UniProt O60674); assay: as above
Jak2, sequence (O60674 whole entry, looked up): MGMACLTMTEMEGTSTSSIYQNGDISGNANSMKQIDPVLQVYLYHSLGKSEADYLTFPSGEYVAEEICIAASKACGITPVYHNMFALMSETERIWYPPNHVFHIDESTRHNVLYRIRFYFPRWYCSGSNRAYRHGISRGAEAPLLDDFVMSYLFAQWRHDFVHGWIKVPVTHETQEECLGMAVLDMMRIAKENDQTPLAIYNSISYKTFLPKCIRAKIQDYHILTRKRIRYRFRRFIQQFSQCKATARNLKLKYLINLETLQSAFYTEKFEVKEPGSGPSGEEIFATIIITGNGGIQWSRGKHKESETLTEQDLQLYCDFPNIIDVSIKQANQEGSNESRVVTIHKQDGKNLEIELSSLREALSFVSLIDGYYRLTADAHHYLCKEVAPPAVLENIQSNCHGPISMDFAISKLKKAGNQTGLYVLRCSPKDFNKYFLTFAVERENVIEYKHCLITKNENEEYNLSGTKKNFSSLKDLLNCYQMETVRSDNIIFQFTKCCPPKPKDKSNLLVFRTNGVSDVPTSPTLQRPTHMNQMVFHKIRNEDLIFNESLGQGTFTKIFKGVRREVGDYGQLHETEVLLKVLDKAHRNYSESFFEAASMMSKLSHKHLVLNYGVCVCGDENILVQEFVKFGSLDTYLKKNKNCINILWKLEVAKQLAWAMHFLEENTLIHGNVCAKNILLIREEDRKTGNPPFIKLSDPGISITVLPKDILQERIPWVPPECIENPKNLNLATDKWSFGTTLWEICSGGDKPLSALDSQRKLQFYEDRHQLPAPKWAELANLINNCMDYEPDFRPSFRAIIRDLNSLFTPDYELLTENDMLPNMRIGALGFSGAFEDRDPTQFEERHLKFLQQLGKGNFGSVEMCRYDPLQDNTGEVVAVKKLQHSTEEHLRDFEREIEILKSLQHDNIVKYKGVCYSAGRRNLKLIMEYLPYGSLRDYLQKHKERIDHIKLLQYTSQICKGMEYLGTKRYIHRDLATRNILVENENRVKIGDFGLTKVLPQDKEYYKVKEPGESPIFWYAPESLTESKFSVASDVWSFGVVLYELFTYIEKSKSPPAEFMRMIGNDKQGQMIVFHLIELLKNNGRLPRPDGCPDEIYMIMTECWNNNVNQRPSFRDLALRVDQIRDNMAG

Fes = Fes (UniProt P07332); assay: as above
Fes, sequence (P07332 whole entry, looked up): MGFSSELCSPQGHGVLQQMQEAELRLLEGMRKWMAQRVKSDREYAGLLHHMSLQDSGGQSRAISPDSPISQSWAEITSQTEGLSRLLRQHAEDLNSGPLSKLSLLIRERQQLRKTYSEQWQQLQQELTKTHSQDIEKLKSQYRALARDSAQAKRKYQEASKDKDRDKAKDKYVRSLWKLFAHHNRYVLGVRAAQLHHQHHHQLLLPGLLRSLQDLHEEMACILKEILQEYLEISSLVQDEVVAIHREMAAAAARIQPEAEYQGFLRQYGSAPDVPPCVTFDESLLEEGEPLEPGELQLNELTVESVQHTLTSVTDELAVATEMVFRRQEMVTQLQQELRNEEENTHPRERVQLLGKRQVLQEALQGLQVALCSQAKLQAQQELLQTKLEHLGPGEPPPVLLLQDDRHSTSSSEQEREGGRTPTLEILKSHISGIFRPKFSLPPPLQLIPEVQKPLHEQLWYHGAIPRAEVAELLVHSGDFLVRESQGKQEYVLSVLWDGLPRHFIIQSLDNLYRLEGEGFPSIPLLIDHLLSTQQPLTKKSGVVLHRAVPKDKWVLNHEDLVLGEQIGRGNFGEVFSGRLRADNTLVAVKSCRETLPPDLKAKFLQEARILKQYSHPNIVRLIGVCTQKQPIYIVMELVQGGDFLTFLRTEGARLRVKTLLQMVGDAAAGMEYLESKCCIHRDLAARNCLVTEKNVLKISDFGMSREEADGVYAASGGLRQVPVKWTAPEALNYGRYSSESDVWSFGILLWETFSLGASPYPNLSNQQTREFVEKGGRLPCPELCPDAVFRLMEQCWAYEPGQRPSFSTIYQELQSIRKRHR

EPHB1 = EPHB1 (UniProt P54762); assay: as above
EPHB1, sequence (P54762 whole entry, looked up): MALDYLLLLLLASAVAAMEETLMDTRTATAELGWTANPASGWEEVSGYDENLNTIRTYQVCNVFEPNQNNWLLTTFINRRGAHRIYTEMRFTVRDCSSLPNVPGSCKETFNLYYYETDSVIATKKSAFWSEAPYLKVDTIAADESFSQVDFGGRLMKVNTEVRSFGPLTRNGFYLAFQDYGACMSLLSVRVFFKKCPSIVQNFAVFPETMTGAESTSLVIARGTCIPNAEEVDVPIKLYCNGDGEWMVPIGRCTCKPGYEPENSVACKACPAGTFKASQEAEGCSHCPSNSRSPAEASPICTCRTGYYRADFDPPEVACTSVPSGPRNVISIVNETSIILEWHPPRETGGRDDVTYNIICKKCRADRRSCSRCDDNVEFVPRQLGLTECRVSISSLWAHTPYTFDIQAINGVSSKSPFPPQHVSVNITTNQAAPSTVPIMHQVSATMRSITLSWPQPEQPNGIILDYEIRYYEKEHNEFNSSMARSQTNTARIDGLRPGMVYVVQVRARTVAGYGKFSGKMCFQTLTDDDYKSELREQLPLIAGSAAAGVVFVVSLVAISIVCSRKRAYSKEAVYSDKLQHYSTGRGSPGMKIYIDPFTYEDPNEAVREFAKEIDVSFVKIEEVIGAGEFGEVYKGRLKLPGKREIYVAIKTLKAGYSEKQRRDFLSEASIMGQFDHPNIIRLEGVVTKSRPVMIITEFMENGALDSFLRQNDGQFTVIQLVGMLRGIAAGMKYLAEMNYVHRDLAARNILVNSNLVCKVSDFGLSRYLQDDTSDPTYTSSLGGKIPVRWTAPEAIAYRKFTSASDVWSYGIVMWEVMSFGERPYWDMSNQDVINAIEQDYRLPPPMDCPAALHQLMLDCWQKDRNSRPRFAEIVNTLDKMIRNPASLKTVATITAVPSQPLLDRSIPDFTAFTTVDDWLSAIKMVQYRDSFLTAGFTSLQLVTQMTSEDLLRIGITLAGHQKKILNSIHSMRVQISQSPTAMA

FGFR3 = FGFR3 (UniProt P22607); assay: as above
FGFR3, sequence (P22607 whole entry, looked up): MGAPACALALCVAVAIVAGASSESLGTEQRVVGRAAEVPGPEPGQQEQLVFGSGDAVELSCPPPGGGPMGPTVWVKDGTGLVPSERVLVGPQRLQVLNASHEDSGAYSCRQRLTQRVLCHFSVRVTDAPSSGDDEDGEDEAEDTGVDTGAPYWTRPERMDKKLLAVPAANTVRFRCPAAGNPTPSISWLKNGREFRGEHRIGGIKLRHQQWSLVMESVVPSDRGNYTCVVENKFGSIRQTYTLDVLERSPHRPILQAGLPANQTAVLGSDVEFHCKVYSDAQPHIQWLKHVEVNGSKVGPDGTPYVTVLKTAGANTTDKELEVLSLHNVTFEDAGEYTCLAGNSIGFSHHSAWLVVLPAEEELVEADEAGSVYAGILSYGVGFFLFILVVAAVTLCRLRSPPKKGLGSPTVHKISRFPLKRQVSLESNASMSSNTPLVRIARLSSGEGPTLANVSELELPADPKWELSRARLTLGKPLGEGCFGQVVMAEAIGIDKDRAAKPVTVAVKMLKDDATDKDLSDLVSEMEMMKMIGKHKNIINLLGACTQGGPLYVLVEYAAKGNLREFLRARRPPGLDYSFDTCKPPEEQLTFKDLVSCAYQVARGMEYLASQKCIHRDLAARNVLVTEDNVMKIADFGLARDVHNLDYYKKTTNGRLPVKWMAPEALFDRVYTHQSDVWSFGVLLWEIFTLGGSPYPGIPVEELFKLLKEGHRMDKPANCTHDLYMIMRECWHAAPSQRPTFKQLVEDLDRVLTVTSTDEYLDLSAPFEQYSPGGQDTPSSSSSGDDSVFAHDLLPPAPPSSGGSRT

EPHB2 = EPHB2 (UniProt P29323); assay: as above
FGFR1 = FGFR1 (UniProt P11362); assay: as above
FGFR1, sequence (P11362 whole entry, looked up): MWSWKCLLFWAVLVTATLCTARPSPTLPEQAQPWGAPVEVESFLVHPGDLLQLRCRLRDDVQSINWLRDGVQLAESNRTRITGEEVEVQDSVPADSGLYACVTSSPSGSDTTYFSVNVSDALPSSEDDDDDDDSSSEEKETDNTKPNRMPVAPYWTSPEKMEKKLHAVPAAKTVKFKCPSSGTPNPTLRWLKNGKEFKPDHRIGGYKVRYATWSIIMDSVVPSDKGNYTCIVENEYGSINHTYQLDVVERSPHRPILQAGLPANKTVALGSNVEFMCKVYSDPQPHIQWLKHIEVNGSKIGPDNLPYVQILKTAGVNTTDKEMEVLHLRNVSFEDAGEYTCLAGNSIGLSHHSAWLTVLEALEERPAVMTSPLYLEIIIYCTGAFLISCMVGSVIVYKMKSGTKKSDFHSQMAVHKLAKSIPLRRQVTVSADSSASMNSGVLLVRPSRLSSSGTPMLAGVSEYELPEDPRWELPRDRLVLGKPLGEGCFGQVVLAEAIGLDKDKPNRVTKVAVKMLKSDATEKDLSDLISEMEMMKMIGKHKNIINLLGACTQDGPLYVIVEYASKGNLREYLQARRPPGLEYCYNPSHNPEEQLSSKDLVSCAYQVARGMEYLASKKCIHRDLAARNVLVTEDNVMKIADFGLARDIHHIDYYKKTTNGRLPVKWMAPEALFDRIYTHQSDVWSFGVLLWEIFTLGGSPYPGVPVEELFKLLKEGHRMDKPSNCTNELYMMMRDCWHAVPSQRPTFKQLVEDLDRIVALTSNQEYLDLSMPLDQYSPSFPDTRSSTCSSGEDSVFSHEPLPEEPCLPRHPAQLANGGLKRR

MERTK = MERTK (UniProt Q12866); assay: as above
AncSZ = assay: as above
Fer (mouse) = assay: as above
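For SH2 binding enrichment of the phosphorylated peptide, bacterial display in this document: peptide library displayed on the E. coli surface as eCPX fusions, selected cells deep-sequenced, score is each peptide's frequency after selection divided by its frequency in the input.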
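For phosphorylation enrichment, bacterial display in this document: 11-residue human phosphosite peptides and single-mutation variants displayed on the E. coli surface, counted by deep sequencing, each peptide's frequency after selection divided by its frequency in the unselected input library; frequency after pTyr selection over input frequency; kinase dosed for 20-30% of maximal phosphorylation in three min.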

Row | Sequence | SH2 binding enrichment (Grb2 SH2) | SH2 binding enrichment (c-Src SH2) | SH2 binding enrichment (SHP2-C SH2) | phosphorylation enrichment (Hck) | phosphorylation enrichment (c-Src) | phosphorylation enrichment (Fyn) | phosphorylation enrichment (c-Abl (mouse)) | phosphorylation enrichment (Jak2) | phosphorylation enrichment (Fes) | phosphorylation enrichment (EPHB1) | phosphorylation enrichment (FGFR3) | phosphorylation enrichment (EPHB2) | phosphorylation enrichment (FGFR1) | phosphorylation enrichment (MERTK) | phosphorylation enrichment (AncSZ) | phosphorylation enrichment (Fer (mouse))
1 | CATIHYNFMCN [TP53_Y234_T230A_YF] | 1.37 | 2.23 | 1.51 | 0.577 | 0.525 | 0.478 | 0.757 | 0.903 | 0.944 | 0.68 | 0.596 | 0.52 | 0.634 | 0.497 | 0.993 | 0.602
2 | CDDGKYVFVVT [RPS6KA3_Y488_Y483C_YF] | 0.59 | 0.4 | 0.556 | 0.508 | 0.412 | 0.444 | 0.862 | 1.11 | 1.43 | 0.604 | 0.919 | 0.719 | 0.574 | 0.437 | 1.23 | 0.683
3 | CEHFSYYGMKA [SLC15A2_Y60_R57H] | 0.961 | 1.24 | 0.661 | 1.93 | 2.37 | 0.866 | 0.708 | 5.02 | 0.933 | 0.52 | 3.17 | 0.644 | 5.26 | 1.54 | 1.06 | 0.812
4 | CEHRGSLFLAI [TEK_Y897_Y897S_YF] | 0.989 | 0.567 | 0.672 | 0.457 | 0.457 | 0.427 | 0.944 | 1.04 | 1.16 | 0.55 | 0.725 | 0.564 | 0.501 | 0.422 | 1.03 | 0.533
5 | CEQELYSQLVF [WAS_Y102_W97C_YF] | 0.933 | 0.515 | 0.553 | 6.76 | 5.87 | 6.89 | 0.987 | 1.24 | 1.44 | 1.84 | 1.79 | 2.2 | 1.66 | 6.07 | 1.59 | 10.7
6 | CGPLLYGLVHQ [PRKCG_Y122_S119P] | 0.815 | 0.517 | 0.881 | 4.88 | 4.08 | 3.72 | 0.73 | 1.06 | 1.16 | 2.72 | 0.723 | 4.12 | 0.593 | 4.98 | 0.884 | 8.22
7 | CGQDPYIRELG [UROS_Y19] | 0.731 | 0.563 | 0.492 | 0.569 | 0.433 | 0.535 | 0.877 | 0.971 | 1.27 | 0.674 | 0.707 | 0.53 | 0.497 | 0.427 | 1.05 | 0.534
8 | CGTPDNIAPEI [PRKCG_Y521_Y521N] | 0.777 | 0.485 | 0.533 | 0.609 | 0.458 | 0.593 | 0.782 | 0.989 | 1.49 | 0.72 | 0.933 | 0.762 | 0.51 | 0.459 | 1.17 | 0.548
9 | CKRQFYLFKGK [RSPO4_Y112_YF] | 1.28 | 1.07 | 1.05 | 0.4 | 0.377 | 0.431 | 0.497 | 0.745 | 1.01 | 0.385 | 0.591 | 0.546 | 0.446 | 0.489 | 0.863 | 0.403
10 | CLNAIYQNNLT [GSR_Y158_R153C] | 4.11 | 0.807 | 0.67 | 1.53 | 1.41 | 0.995 | 0.759 | 0.744 | 0.996 | 0.622 | 0.722 | 0.636 | 0.479 | 0.563 | 0.991 | 3.44
11 | CPYNLYAEQFS [HGD_Y40_L44F] | 0.855 | 0.706 | 0.645 | 3 | 6.06 | 3.86 | 0.72 | 0.989 | 1.16 | 4.18 | 0.973 | 3.18 | 0.877 | 3.9 | 1.46 | 2.09
12 | CRIELYRIVES [IGFBP1_Y181_V183I] | 0.888 | 0.556 | 0.682 | 0.548 | 0.53 | 0.455 | 0.991 | 1.28 | 1.49 | 1.82 | 0.837 | 0.616 | 0.422 | 0.451 | 1.21 | 0.579
13 | CSDPSYVKQME [CDC5L_Y464_Y459C] | 0.882 | 0.515 | 0.666 | 0.492 | 0.488 | 0.467 | 0.849 | 1.13 | 1.38 | 0.703 | 0.931 | 0.626 | 0.488 | 0.493 | 1.22 | 0.661
14 | CSEEMYRLMLQ [RET_Y981] | 0.7 | 0.414 | 0.549 | 0.666 | 0.643 | 0.606 | 0.947 | 1.5 | 1.41 | 0.695 | 0.853 | 0.664 | 0.921 | 0.573 | 1.4 | 0.619
